Molecular target: lrp6_human LRP6 (UniProt O75581)
Chain of UniProt O75581 (O75581 whole entry): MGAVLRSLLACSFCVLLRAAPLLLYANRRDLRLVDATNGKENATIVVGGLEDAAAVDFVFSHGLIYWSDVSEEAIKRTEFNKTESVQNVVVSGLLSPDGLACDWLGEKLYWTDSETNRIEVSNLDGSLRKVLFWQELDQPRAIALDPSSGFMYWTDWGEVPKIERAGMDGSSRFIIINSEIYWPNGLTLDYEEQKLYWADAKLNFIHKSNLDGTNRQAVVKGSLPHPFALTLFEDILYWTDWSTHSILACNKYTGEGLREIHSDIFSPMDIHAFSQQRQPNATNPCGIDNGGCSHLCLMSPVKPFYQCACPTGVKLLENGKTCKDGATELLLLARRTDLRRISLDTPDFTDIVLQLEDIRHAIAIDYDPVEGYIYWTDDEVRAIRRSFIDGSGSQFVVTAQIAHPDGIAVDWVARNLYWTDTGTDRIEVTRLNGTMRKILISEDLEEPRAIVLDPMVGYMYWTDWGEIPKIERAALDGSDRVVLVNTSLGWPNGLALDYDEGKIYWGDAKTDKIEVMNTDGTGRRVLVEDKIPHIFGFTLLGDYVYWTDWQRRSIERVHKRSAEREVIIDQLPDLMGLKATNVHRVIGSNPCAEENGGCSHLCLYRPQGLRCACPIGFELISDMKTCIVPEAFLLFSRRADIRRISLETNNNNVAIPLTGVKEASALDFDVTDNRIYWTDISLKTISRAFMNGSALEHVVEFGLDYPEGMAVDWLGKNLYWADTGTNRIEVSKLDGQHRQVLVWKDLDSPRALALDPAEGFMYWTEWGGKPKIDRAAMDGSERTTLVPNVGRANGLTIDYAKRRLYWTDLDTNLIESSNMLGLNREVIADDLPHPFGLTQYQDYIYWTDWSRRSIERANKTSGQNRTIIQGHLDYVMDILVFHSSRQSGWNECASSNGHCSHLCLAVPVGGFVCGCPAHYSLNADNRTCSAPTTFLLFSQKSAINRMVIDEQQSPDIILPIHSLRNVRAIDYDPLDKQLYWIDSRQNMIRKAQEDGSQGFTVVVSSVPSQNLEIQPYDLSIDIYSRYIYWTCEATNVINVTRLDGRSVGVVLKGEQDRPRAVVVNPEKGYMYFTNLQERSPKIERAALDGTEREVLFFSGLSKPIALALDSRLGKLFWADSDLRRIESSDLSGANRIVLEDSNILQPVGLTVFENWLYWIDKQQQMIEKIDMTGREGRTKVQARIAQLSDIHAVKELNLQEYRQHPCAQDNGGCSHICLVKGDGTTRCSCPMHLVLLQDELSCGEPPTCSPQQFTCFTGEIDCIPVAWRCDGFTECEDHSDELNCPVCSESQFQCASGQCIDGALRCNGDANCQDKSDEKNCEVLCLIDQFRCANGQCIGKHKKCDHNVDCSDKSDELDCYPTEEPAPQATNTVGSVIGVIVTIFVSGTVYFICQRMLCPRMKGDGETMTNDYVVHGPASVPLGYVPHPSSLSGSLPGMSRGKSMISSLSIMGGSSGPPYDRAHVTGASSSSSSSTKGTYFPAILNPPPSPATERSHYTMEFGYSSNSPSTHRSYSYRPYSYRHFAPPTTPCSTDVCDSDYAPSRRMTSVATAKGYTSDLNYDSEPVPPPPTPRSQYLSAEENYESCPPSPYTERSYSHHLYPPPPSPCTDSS

| Substance | effect of a mutation on the interaction |
| --- | --- |
| Leucine-rich repeat serine/threonine-protein kinase 2 (Homo sapiens), Q5S007 R1398H | decreasing interaction strength |
| Leucine-rich repeat serine/threonine-protein kinase 2 (Homo sapiens), Q5S007 R1441G | decreasing interaction strength |
